Publication doi:10.1101/2024.05.05.592584 (bioRxiv, 2024)

Assays:
Experiment in all cases: BLI
Settings in all cases: both partners purified
[1] = biological target: SARS-CoV-2 Wuhan-Hu-1 RBD (SARS-CoV-2 Wuhan-Hu-1, UniProt P0DTC2)
[2] = biological target: SARS-CoV-2 Wuhan-Hu-1 NTD (SARS-CoV-2 Wuhan-Hu-1, UniProt P0DTC2)
SARS-CoV-2 HV.1 NTD = biological target: T1, SARS-CoV-2 HV.1 NTD (SARS-CoV-2 Omicron HV.1, strain)
T1 chain: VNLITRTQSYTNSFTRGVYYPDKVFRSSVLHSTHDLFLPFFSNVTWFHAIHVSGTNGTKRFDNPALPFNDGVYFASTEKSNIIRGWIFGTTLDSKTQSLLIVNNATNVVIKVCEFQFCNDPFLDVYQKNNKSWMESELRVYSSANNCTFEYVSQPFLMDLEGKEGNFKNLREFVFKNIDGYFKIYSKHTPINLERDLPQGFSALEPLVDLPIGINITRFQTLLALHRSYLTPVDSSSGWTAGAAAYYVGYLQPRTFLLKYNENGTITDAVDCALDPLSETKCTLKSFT

[3] = biological target: SARS-CoV-2 RBD-SD1 protein (SARS-CoV-2, Wuhan-Hu-1 lineage (GenBank …, UniProt A0A679G9E9))
[4] = biological target: SARS-CoV-2 Wuhan-Hu-1 NTD protein (SARS-CoV-2 Wuhan-Hu-1, UniProt P0DTC2)
SARS-CoV-2 RBD protein = SARS-CoV-2 RBD protein (SARS-CoV-2 Wuhan-Hu-1, UniProt P0DTC2)

B1: C952 IgG (antibody, V domains shown)
VH: EVQLVQSGAEVKKPGESLTISCKDSGNSFTIYWIGWVRQMPGKGLEWMGMIYPGDSGTRYSPSFEGQVTISADESINTAYLQWRSLKASDTAMYYCVRGIAVDWYFDLWGRGTLVTVSS
VL: QSVLTQPPSVSGAPGQRVTISCTGSSSNIGAGFDVHWYQQLPGTAPKLLIYGNNNRPSGVPDRFSGSKSATSASLAITGLQAEDEADYYCQSSDSSLSGLYVFGTGTNVIVL
notes: copies: 2 + 2
Binder B1 has a Kd [1] of 6.35 nM, a koff [1] of 0.00176 s⁻¹ and a kon [1] of 278000 M⁻¹ s⁻¹.

B2: C1533 IgG (antibody, V domains shown)
VH: QVQLVQSGAEVKKPGSSVKVSCKTSGVIFSRNAFSWVRQAPGQGLEWMGRIIPFLDVTNSAQEFQGRVTLNADKSTSTVYMELSSLRSEDTAIYYCARHNGDPYDFWSGYNTWAGGLDVWGQGTTVTVSS
VL: QSVLTQPPSASGTPGQRVTISCSGSGSNIGSNAVNWYQQLPGTAPKLLIYNQNQRPSGVPDRFSGSKSGTSASLAIGGLQSEDEADYYCATWDDNLSGLVFGGGTKLTVL
notes: copies: 2 + 2
Binder B2 has a Kd [2] of 17.1 nM, a koff [2] of 0.000547 s⁻¹ and a kon [2] of 32000 M⁻¹ s⁻¹.

B3: C1596 IgG (antibody, V domains shown)
VH: QVQLVQSGAEVKKPGSSVKVSCKASGGTFINYAVTWVRQAPGQGLEWMGGIIPILGIPNYAQKFQGRVTITADKSTSTAYMELSSLRSEDTAVYYCARVPQAGAAQGHYYYYYGMDVWGQGTTVTVSS
VL: not shown
notes: copies: 2 + 2
With B3 the Kd (SARS-CoV-2 HV.1 NTD) was 553 nM and the Kd [2] was 125 nM.

B4: C1596 Fab (Fab, V domains shown)
VH: B3 VH
VL: not shown
B4 was tested, and the binding result [3] was “no binding”, the Kd [4] was 160 nM and the binding result (SARS-CoV-2 RBD protein) was “no binding”.

B5: C1520 IgG (antibody, V domains shown)
VH: EVQLVESGGGLVQPGGSLRLACVASGFTFSIYEMNWVRQAPGKGLEWVSYITTSGHARYNADSVKGRFTISRDNSKNSFYLQMNSLRAEDTAIYYCARPQYHYYDTSTYHSYGFDIWGQGTMVTVSS
VL: QLVLTQSPSASASLGASVNLTCTLSSGHNSYAIAWHQQQPEKGPRYLMSLNSDGSHTKGDGIPDRFSGSSSGAERFLTISSLQSEDEADYYCQTWDTGIRVFGGGTRLTVL
notes: copies: 2 + 2
Work on B5 yielded a Kd [2] of 24.8 nM, a koff [2] of 0.000393 s⁻¹ and a kon [2] of 15900 M⁻¹ s⁻¹.
